Results reported in patent US20190153055A1.

Biological target: receptor CCR1 (UniProt P32246)
Assay: cell-based or functional assay

UniProt P32246, sequence (P32246 whole entry): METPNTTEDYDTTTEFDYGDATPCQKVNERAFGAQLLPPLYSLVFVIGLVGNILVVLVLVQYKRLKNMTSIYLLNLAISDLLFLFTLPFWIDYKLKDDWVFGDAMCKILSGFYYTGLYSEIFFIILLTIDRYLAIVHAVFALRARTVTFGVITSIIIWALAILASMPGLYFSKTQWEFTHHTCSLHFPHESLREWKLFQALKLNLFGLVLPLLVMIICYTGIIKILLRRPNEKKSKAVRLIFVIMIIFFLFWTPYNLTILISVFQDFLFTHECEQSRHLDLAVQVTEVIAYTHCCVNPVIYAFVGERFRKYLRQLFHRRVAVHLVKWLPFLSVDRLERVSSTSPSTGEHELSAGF

“CCL3 (D27A, Δ1, CCL3α) (from UniProt P10147 24-92) (ligand)” showed a reactivity of the CCR1 receptor (Tango CCR1-bla U20S reporter cells, Blue/Green Emission ratio) of 0.63 nM.
